The record followed here is patent US20180155451A1 (published 2018).

For one assay, the target named is T1, FcγRIIa H (human, UniProt P12318 34-217).
T1 construct: extracellular domain; also called FcgRIIa H; FcγRIIa type H; not shown: His tag attached to the C terminus
T1 sequence (looked up): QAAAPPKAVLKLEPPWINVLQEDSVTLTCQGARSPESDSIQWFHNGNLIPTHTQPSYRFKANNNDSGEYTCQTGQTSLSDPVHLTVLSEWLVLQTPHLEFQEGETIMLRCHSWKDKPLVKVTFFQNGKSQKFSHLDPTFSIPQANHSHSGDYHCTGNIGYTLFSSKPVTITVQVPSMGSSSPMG
Description: SPR (Biacore), antibody captured, FcγR as analyte; binding relative to GpH7-A5/GpH7-B3/GpL16-k0 = 100.

Another assay has as its target T2, FcγRIIb (human, UniProt P31994 43-217).
T2 construct: extracellular domain; also called FcgRIIb; 2b; not shown: His tag attached to the C terminus
T2 sequence (looked up): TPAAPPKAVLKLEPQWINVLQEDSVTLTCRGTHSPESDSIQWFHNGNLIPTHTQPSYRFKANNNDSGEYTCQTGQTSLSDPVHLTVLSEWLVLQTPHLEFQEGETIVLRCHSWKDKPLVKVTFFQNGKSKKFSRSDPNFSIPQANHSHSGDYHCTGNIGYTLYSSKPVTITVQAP
The description is as above.

B1: GpH7-A5/GpH7-B3 variant I332_16H/GpL16-k0 (antibody, human IgG1, kappa)
heavy 1: not shown
heavy 2: not shown
light: DIVMTQSPLSLPVTPGEPASISCQASESLVHSNRNTYLHWYLQKPGQSPQLLIYKVSNRFSGVPDRFSGSGSGTDFTLKISRVEAEDVGVYYCSQNTHVPPTFGQGTKVEIERTVAAPSVFIFPPSDEQLKSGTASVVCLLNNFYPREAKVQWKVDNALQSGNSQESVTEQDSKDSTYSLSSTLTLSKADYEKHKVYACEVTHQGLSSPVTKSFNRGEC
notes: Heterodimerized IgG1, mutation in the GpH7-B3 chain only; also called He Ab
Regarding B1, in the assay with FcγRIIa H, the He/Con_2aH came to 109 control = 100. In the assay with FcγRIIb, the He/Con_2b was 93 control = 100.

B2: GpH7-A5/GpH7-B3 variant S324_02A/GpL16-k0 (antibody, human IgG1, kappa)
heavy 1: not shown
heavy 2: not shown
light: DIVMTQSPLSLPVTPGEPASISCQASESLVHSNRNTYLHWYLQKPGQSPQLLIYKVSNRFSGVPDRFSGSGSGTDFTLKISRVEAEDVGVYYCSQNTHVPPTFGQGTKVEIERTVAAPSVFIFPPSDEQLKSGTASVVCLLNNFYPREAKVQWKVDNALQSGNSQESVTEQDSKDSTYSLSSTLTLSKADYEKHKVYACEVTHQGLSSPVTKSFNRGEC
notes: as for B1
Consider B2, for which the He/Con_2aH with FcγRIIa H turned out to be 102 control = 100. Further, the He/Con_2b with FcγRIIb came out at 78.3 control = 100.

B3: GpH7-A5/GpH7-B3 variant I332_19Q/GpL16-k0 (antibody, human IgG1, kappa)
heavy 1: not shown
heavy 2: not shown
light: DIVMTQSPLSLPVTPGEPASISCQASESLVHSNRNTYLHWYLQKPGQSPQLLIYKVSNRFSGVPDRFSGSGSGTDFTLKISRVEAEDVGVYYCSQNTHVPPTFGQGTKVEIERTVAAPSVFIFPPSDEQLKSGTASVVCLLNNFYPREAKVQWKVDNALQSGNSQESVTEQDSKDSTYSLSSTLTLSKADYEKHKVYACEVTHQGLSSPVTKSFNRGEC
notes: as for B1
In the case of B3, the He/Con_2aH with FcγRIIa H was 108 control = 100. Further, the He/Con_2b with FcγRIIb came to 94.3 control = 100.

B4: GpH7-A5/GpH7-B3 variant I332_18N/GpL16-k0 (antibody, human IgG1, kappa)
heavy 1: not shown
heavy 2: not shown
light: DIVMTQSPLSLPVTPGEPASISCQASESLVHSNRNTYLHWYLQKPGQSPQLLIYKVSNRFSGVPDRFSGSGSGTDFTLKISRVEAEDVGVYYCSQNTHVPPTFGQGTKVEIERTVAAPSVFIFPPSDEQLKSGTASVVCLLNNFYPREAKVQWKVDNALQSGNSQESVTEQDSKDSTYSLSSTLTLSKADYEKHKVYACEVTHQGLSSPVTKSFNRGEC
notes: as for B1
In the assay with FcγRIIa H, B4 registered a He/Con_2aH of 110 control = 100. Moreover, in the assay with FcγRIIb, the He/Con_2b came out at 89.9 control = 100.

B5: GpH7-A5/GpH7-B3 variant S324_04F/GpL16-k0 (antibody, human IgG1, kappa)
heavy 1: not shown
heavy 2: not shown
light: DIVMTQSPLSLPVTPGEPASISCQASESLVHSNRNTYLHWYLQKPGQSPQLLIYKVSNRFSGVPDRFSGSGSGTDFTLKISRVEAEDVGVYYCSQNTHVPPTFGQGTKVEIERTVAAPSVFIFPPSDEQLKSGTASVVCLLNNFYPREAKVQWKVDNALQSGNSQESVTEQDSKDSTYSLSSTLTLSKADYEKHKVYACEVTHQGLSSPVTKSFNRGEC
notes: as for B1
In the assay with FcγRIIa H, B5 showed a He/Con_2aH of 101 control = 100. Also, the He/Con_2b in the assay with FcγRIIb was determined as 89.1 control = 100.

B6: GpH7-A5/GpH7-B3 variant Q295_07I/GpL16-k0 (antibody, human IgG1, kappa)
heavy 1: not shown
heavy 2: not shown
light: DIVMTQSPLSLPVTPGEPASISCQASESLVHSNRNTYLHWYLQKPGQSPQLLIYKVSNRFSGVPDRFSGSGSGTDFTLKISRVEAEDVGVYYCSQNTHVPPTFGQGTKVEIERTVAAPSVFIFPPSDEQLKSGTASVVCLLNNFYPREAKVQWKVDNALQSGNSQESVTEQDSKDSTYSLSSTLTLSKADYEKHKVYACEVTHQGLSSPVTKSFNRGEC
notes: as for B1
The molecule B6 yielded a He/Con_2aH with FcγRIIa H of 102 control = 100. In the assay with FcγRIIb, the He/Con_2b was found to be 84.3 control = 100.

B7: GpH7-A5/GpH7-B3 variant Q295_05P/GpL16-k0 (antibody, human IgG1, kappa)
heavy 1: not shown
heavy 2: not shown
light: DIVMTQSPLSLPVTPGEPASISCQASESLVHSNRNTYLHWYLQKPGQSPQLLIYKVSNRFSGVPDRFSGSGSGTDFTLKISRVEAEDVGVYYCSQNTHVPPTFGQGTKVEIERTVAAPSVFIFPPSDEQLKSGTASVVCLLNNFYPREAKVQWKVDNALQSGNSQESVTEQDSKDSTYSLSSTLTLSKADYEKHKVYACEVTHQGLSSPVTKSFNRGEC
notes: as for B1
In turn, B7 had a He/Con_2aH with FcγRIIa H of 103 control = 100. Also, the He/Con_2b with FcγRIIb is 67.5 control = 100.

B8: GpH7-A5/GpH7-B3 variant K326_12R/GpL16-k0 (antibody, human IgG1, kappa)
heavy 1: not shown
heavy 2: not shown
light: DIVMTQSPLSLPVTPGEPASISCQASESLVHSNRNTYLHWYLQKPGQSPQLLIYKVSNRFSGVPDRFSGSGSGTDFTLKISRVEAEDVGVYYCSQNTHVPPTFGQGTKVEIERTVAAPSVFIFPPSDEQLKSGTASVVCLLNNFYPREAKVQWKVDNALQSGNSQESVTEQDSKDSTYSLSSTLTLSKADYEKHKVYACEVTHQGLSSPVTKSFNRGEC
notes: as for B1
In the case of B8, the He/Con_2aH with FcγRIIa H worked out at 101 control = 100. In the assay with FcγRIIb, the He/Con_2b stood at 89.2 control = 100.
